To fix the notation:
B1: TPR t1 (parent)
chain: GACCAAUCUGCCCUCAGAGCUCGAGAACAUCUUCGGAUGCAGAGGAGGCAGGCUUCGGUGGCGCGAUAGCGCCAACGUCCUCAACCUCCAAUGCAUCCCACCACAUGAUGAUGCCUGAAGAGCCUUGGUUUUUUG

The variants in this data set derive from B1. Nature of the data set: polymerase ribozyme fitness, log enrichment relative to wild type (log ratio); higher = more active; in vitro selection for triplet polymerase activity. The essentials:
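Only genotypes with ≥10 input reads and ≥1 read per output were kept after Illumina sequencing of input and output libraries. These libraries were PCR-built, transcribed mutants of each subunit of a heterodimeric triplet polymerase ribozyme, each put through one triplicate in vitro selection round with frozen incubation at −7 °C, gel excision of extended constructs, streptavidin-bead capture and RT-PCR. Fitness is a logarithmic ratio of genotype enrichment to wild-type enrichment, from inverse-variance-weighted replicate averages, with the logarithm in base 2.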
With A6C C72G A108G C115U, the “polymerase ribozyme fitness (log ratio)” value was -4.82.

Turning to A6G C11G C13G C99A C102U, the “polymerase ribozyme fitness (log ratio)” value was -5.35.

For A5G C72A, the “polymerase ribozyme fitness (log ratio)” value worked out at 0.0113.

Regarding A5G A27U A111G, the “polymerase ribozyme fitness (log ratio)” value is -3.24.

In the case of A6C U7A C8A A29C U55A C88G C94U, the “polymerase ribozyme fitness (log ratio)” value was -2.74.

With A5G G120C, the “polymerase ribozyme fitness (log ratio)” value was found to be 0.0754.

Take A6C U30G G63A A91U A100G C104G U109G: the “polymerase ribozyme fitness (log ratio)” value was -5.44.

With A5C C56G C98A A121C, the “polymerase ribozyme fitness (log ratio)” value is -3.33.

For A6G A18C U54C, the “polymerase ribozyme fitness (log ratio)” value is -2.19.

With C4U G60U C114U, the “polymerase ribozyme fitness (log ratio)” value is -3.78.

In the case of C4U U130A, the “polymerase ribozyme fitness (log ratio)” value is -1.49.

Turning to A5U G25U C53U G69C C94U, the “polymerase ribozyme fitness (log ratio)” value is -7.17.

For A5G G44U G52A, the “polymerase ribozyme fitness (log ratio)” value is -2.

Take A6G C115A: the “polymerase ribozyme fitness (log ratio)” value came out at 0.525.

On to A6C G63U, for which the “polymerase ribozyme fitness (log ratio)” value was -1.03.

A6G C40U C56U G127C: the “polymerase ribozyme fitness (log ratio)” value was -1.94.

With A5C C11A A50G C53A C99A C102G C104A C115U, the “polymerase ribozyme fitness (log ratio)” value was -7.15.

Take A5G U9G A111U U126A: the “polymerase ribozyme fitness (log ratio)” value was -3.21.

With A5C C70G, the “polymerase ribozyme fitness (log ratio)” value was -2.95.

A5C G58A G60C: the “polymerase ribozyme fitness (log ratio)” value is -0.634.

For the variant A5U C56A C102A U116C, the “polymerase ribozyme fitness (log ratio)” value is -5.7.

As for A5C U9C C28G C56U G120A, the “polymerase ribozyme fitness (log ratio)” value was -1.71.

As to A5U G42C U87A A91G, the “polymerase ribozyme fitness (log ratio)” value is -1.35.

Turning to A5C G48C U78A C115A, the “polymerase ribozyme fitness (log ratio)” value was -2.4.

In the case of A5C U7C A29G G71A C89U G93C, the “polymerase ribozyme fitness (log ratio)” value was -4.81.

With A5U U87A, the “polymerase ribozyme fitness (log ratio)” value is -0.245.

A5U U87G: the “polymerase ribozyme fitness (log ratio)” value was -0.121.

Regarding A5G U9A G52U, the “polymerase ribozyme fitness (log ratio)” value is -1.25.

In the case of A5U C22A, the “polymerase ribozyme fitness (log ratio)” value was -3.71.

Regarding A6G G10U C56A G57A G58A G69U C86U, the “polymerase ribozyme fitness (log ratio)” value was -1.09.

Regarding A6G A46U, the “polymerase ribozyme fitness (log ratio)” value was -1.37.

For the variant A5G G48C G63A G117C, the “polymerase ribozyme fitness (log ratio)” value is -6.49.

Turning to A6C U81C U87G, the “polymerase ribozyme fitness (log ratio)” value is -0.0503.

Regarding A5C G52A, the “polymerase ribozyme fitness (log ratio)” value was -0.884.

Take A5C G52U: the “polymerase ribozyme fitness (log ratio)” value is -2.8.

A5U U112G: the “polymerase ribozyme fitness (log ratio)” value was -0.587.

In the case of A6G C28G C115G U125G, the “polymerase ribozyme fitness (log ratio)” value is -3.74.

For A6G C97U, the “polymerase ribozyme fitness (log ratio)” value is -0.751.

For the variant A5U U96A, the “polymerase ribozyme fitness (log ratio)” value is -0.893.

Take A5U C11A G42C G63A C88U U106A A121C U125A: the “polymerase ribozyme fitness (log ratio)” value was -5.18.

Take A6G A41G A50G C70U: the “polymerase ribozyme fitness (log ratio)” value was -0.773.

Regarding A5G C62U C88G U112C C123A C124A U130A, the “polymerase ribozyme fitness (log ratio)” value is 0.112.

Regarding A5G C89G, the “polymerase ribozyme fitness (log ratio)” value is -1.15.

Consider A6G A74U C76U C115A, for which the “polymerase ribozyme fitness (log ratio)” value was -0.102.

As to A6C G10A A37G G77A C79U C124A, the “polymerase ribozyme fitness (log ratio)” value is -0.0414.

A5C C11U C40U G48U G60U U87A A111C: the “polymerase ribozyme fitness (log ratio)” value was -4.98.

In the case of A6C C94U U106A G113C U126C U133G, the “polymerase ribozyme fitness (log ratio)” value is -4.12.

A5U C11G A16U G60U U87A A103C: the “polymerase ribozyme fitness (log ratio)” value is -5.47.

Turning to A5C G42U G48C G69U, the “polymerase ribozyme fitness (log ratio)” value was -0.971.

Take A5C C56A C80A: the “polymerase ribozyme fitness (log ratio)” value is -3.29.

Consider A5G C15G U32A G63U U112C A119U, for which the “polymerase ribozyme fitness (log ratio)” value was -5.37.

In the case of A5G U32C C40U C99U A100U, the “polymerase ribozyme fitness (log ratio)” value was -5.33.

As to A6C C72G U87A U112A G113U G117C U130G, the “polymerase ribozyme fitness (log ratio)” value was -5.39.

For A5U U9A G48U C49G C101A, the “polymerase ribozyme fitness (log ratio)” value is -1.73.

On to A5U C114A G122U, for which the “polymerase ribozyme fitness (log ratio)” value is -1.76.

In the case of A5U C12U G71U C114A G128A, the “polymerase ribozyme fitness (log ratio)” value was -4.71.

In the case of A5C C11G G36U G44A C56A U112A, the “polymerase ribozyme fitness (log ratio)” value was -1.22.

Regarding A6C G61U U92C U129C, the “polymerase ribozyme fitness (log ratio)” value is -2.43.

Regarding A6G C31A C64U C89G C123G, the “polymerase ribozyme fitness (log ratio)” value is -6.4.

For A6C G17C U87C, the “polymerase ribozyme fitness (log ratio)” value was -3.71.

With A5U A29C U78G C101U, the “polymerase ribozyme fitness (log ratio)” value was -3.29.

In the case of A6C G47U G69C C85A, the “polymerase ribozyme fitness (log ratio)” value is -4.06.

Consider A5C C11G C79U G117C, for which the “polymerase ribozyme fitness (log ratio)” value was -1.88.

A6C G45A: the “polymerase ribozyme fitness (log ratio)” value is -2.73.

Take A5U U33C: the “polymerase ribozyme fitness (log ratio)” value is -3.68.

Take A5G G10A C15A G23C U32G C64A G128C U130C: the “polymerase ribozyme fitness (log ratio)” value is -6.17.

For the variant A5G A27G G45C C97U G120A, the “polymerase ribozyme fitness (log ratio)” value was -2.95.

For the variant A5C G10A C86A, the “polymerase ribozyme fitness (log ratio)” value was -0.155.

For A5U A6C G47A, the “polymerase ribozyme fitness (log ratio)” value was -1.7.

Turning to A5U G52C G61C U129A, the “polymerase ribozyme fitness (log ratio)” value was -2.2.

For the variant A5G A46U C56U C73G G122A C123A, the “polymerase ribozyme fitness (log ratio)” value is -3.

With A5C G47A U59A A100C U106C, the “polymerase ribozyme fitness (log ratio)” value was -4.2.

As for A6G C8A U55A C62A, the “polymerase ribozyme fitness (log ratio)” value is -0.384.

Consider A5G G45A, for which the “polymerase ribozyme fitness (log ratio)” value is -0.52.

On to A5C A26U G36A C88U, for which the “polymerase ribozyme fitness (log ratio)” value was -6.38.

As to A6C C11G C40U C123U, the “polymerase ribozyme fitness (log ratio)” value is 0.00495.

Take A5U G51U G77U: the “polymerase ribozyme fitness (log ratio)” value was -4.52.

With C4U U87A, the “polymerase ribozyme fitness (log ratio)” value was -1.16.

For the variant A5U A27U, the “polymerase ribozyme fitness (log ratio)” value was -3.65.

For A5C C124A U126A U131A, the “polymerase ribozyme fitness (log ratio)” value amounted to 0.939.

As for A6C U30G G61U A84C U112A, the “polymerase ribozyme fitness (log ratio)” value was -3.92.

On to A6C U9C A46C C62U C82U, for which the “polymerase ribozyme fitness (log ratio)” value is -0.79.

On to A5U C8A, for which the “polymerase ribozyme fitness (log ratio)” value was 0.0555.

These data come from the RNAGym collection of RNA variant scans (doi:10.1073/pnas.2313332121).
